{
  "source": "paper doi:10.1101/2023.07.31.551325",
  "about": "(bioRxiv, 2023)",
  "biological_target": "the molecule itself",
  "test": "AUC",
  "data": [
    {"protein": "recombinant full-length Plasmodium vivax Sub1 (PvS1FL) (complex) chain 1: GDILPNEGKKEKDDVHKIISELRFLQKVETILESSNMSVSDVEADANAYNPDRDAPKEELQKLQDQQETPSKQPNNLRNSPQKRAEKKESPGKNKKSLRLIVSENHATSPSFFEESLLQEDVVSFIQSKGKLSNLKNLKSMIIDLNSDMTDEELAEYISLLERKGALIESDKLVGAD chain 2: DVSLASVKDAVRRGESSVNWGKLRSTMLEVPSGESPPSHAASSGSPFDDDDDLLSEAALHREEAHLAGSKTTKGYKFNDEYRNLQWGLDLARLDETQDLINANRVSVTKICVIDSGIDYNHPDLRNNIDVNVKELHGRKGVDDDSNGVVDDVYGANFVNNSGDPMDDNYHGTHVSGIISAVGNNGIGIVGVDGHSKLVICKALDQHKLGRLGDMFKCIDYCISRQAHMINGSFSFDEYSNIFNASVEHLRSLGILFFVSASNCAHDKLSKPDIAKCDLAVNHRYPPILSKTHNNVIAVANLKRDLDESYSLSVNSFYSNIYCQLAAPGTNIYSTTPMNNYRKLNGTSMASPHVAAIASIVRSINPNLTYLQIVEILRNAIVKLPSLTERVSWGGYVDILRAVNLAIDSKAAPYIKSHSWFRWKQGSRR", "values": [
      {"measurement": "stoichiometry N", "value": 2}
    ]}
  ]
}
